Variants at the floor of the assay were thinned out.
What was measured:
biotinyl-Phe-oxazolone = test: self-aminoacylation, catalytic enhancement (BFO) (fold over background); higher = more active; k-Seq, kA / k0A0; sequences stand for … in GGGAAUGGAUCCACAUCUACGAAUUC…UUCACUGCAGACUUGACGAAGCUG
Procedure, shortened: (§1)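 Mutagenized RNA pools with a 21-nt variable region (0.43 μM) reacted with each biotinyl-aminoacyl-oxazolone at 2–1250 μM. Reactions ran in 50 μL HEPES/NaCl/KCl/MgCl2/CaCl2 buffer with 5% acetonitrile, pH 6.9–7.0, for 90 minutes at room temperature. Streptavidin-captured RNA was quantified by triplicate qPCR and Illumina sequencing, and per-sequence fraction reacted was fit to a pseudo-first-order model with 1000 bootstraps. Catalytic enhancement is median kA divided by the uncatalyzed rate, the low-activity peak of a bimodal Gaussian fit.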

biotinyl-Ile-oxazolone = test: self-aminoacylation, catalytic enhancement (BIO) (fold over background); higher = more active; k-Seq, kA / k0A0; sequences stand for … in GGGAAUGGAUCCACAUCUACGAAUUC…UUCACUGCAGACUUGACGAAGCUG
Procedure, shortened: as §1

biotinyl-Met-oxazolone = test: self-aminoacylation, catalytic enhancement (BMO) (fold over background); higher = more active; k-Seq, kA / k0A0; sequences stand for … in GGGAAUGGAUCCACAUCUACGAAUUC…UUCACUGCAGACUUGACGAAGCUG
Procedure, shortened: as §1

biotinyl-Val-oxazolone = test: self-aminoacylation, catalytic enhancement (BVO) (fold over background); higher = more active; k-Seq, kA / k0A0; sequences stand for … in GGGAAUGGAUCCACAUCUACGAAUUC…UUCACUGCAGACUUGACGAAGCUG
Procedure, shortened: as §1

biotinyl-Leu-oxazolone = test: self-aminoacylation, catalytic enhancement (BLO) (fold over background); higher = more active; k-Seq, kA / k0A0; sequences stand for … in GGGAAUGGAUCCACAUCUACGAAUUC…UUCACUGCAGACUUGACGAAGCUG
Procedure, shortened: as §1

biotinyl-Trp-oxazolone = test: self-aminoacylation, catalytic enhancement (BWO) (fold over background); higher = more active; k-Seq, kA / k0A0; sequences stand for … in GGGAAUGGAUCCACAUCUACGAAUUC…UUCACUGCAGACUUGACGAAGCUG
Procedure, shortened: as §1

Sequence	self-aminoacylation (biotinyl-Phe-oxazolone)	self-aminoacylation (biotinyl-Ile-oxazolone)	self-aminoacylation (biotinyl-Met-oxazolone)	self-aminoacylation (biotinyl-Val-oxazolone)	self-aminoacylation (biotinyl-Leu-oxazolone)	self-aminoacylation (biotinyl-Trp-oxazolone)
AAGUUUUCUAAUAGUCGCAGG [Fam3.1 aminoacylation ribozyme variant]	3.74	1.59	1.6	1.52	1.55	2.19
AAGUUUUCUAAUAGUCGCCAG [Fam3.1 aminoacylation ribozyme variant]	2.81	1.78	1.54	1.32	1.15	1.91
AAGUUUUCUAAUAGUCGCGAG [Fam3.1 aminoacylation ribozyme variant]	5.94	2.02	1.84	1.71	1.88	2.99
AAUACCCCGGUCAUCGAGUGA [Fam2.1 aminoacylation ribozyme variant]	27.9	3.15	4.63	3.57	5.27	5.61
AAUACCCUAGUCAUCGAGUGA [Fam2.1 aminoacylation ribozyme variant]	15.4	2.46	4.24	2.64	4.49	5.18
AAUACCCUGCUCAUCGAGUGA [Fam2.1 aminoacylation ribozyme variant]	1.69	1.08	1.22	1.3	1.6	1.17
AAUACCCUGGUCAUCGAGCGA [Fam2.1 aminoacylation ribozyme variant]	1.56	1.65	2.03	1.66	1.55	2.75
AAUACCCUGGUCAUUGAGUGA [Fam2.1 aminoacylation ribozyme variant]	17.1	2.98	5.79	2.9	5.25	6.33
AAUCAACUAGGUCAUCGGGUG [Fam2.2 aminoacylation ribozyme variant]	39.7	4.49	5.89	4.4	6.32	6.47
AAUCACCCAGGUCAUCGGGUG [Fam2.2 aminoacylation ribozyme variant]	27.9	4.58	4.82	4.93	3.76	6.23
AAUCACCUAAGUCAUCGGGUG [Fam2.2 aminoacylation ribozyme variant]	44.5	4.89	6.3	4.44	7.68	7.91
AAUCACCUAGGUCAACGGGUG [Fam2.2 aminoacylation ribozyme variant]	10.3	2.29	2.91	2.77	3.39	3.32
AAUCACCUAGGUCAUCCGGUG [Fam2.2 aminoacylation ribozyme variant]	50	4.59	5.22	4.15	6.61	6.07
AAUCACCUAGGUCAUCGGCUG [Fam2.2 aminoacylation ribozyme variant]	10.9	2.3	3.21	2.34	2.14	2.68
AAUCACCUAGGUCAUCGGGUC [Fam2.2 aminoacylation ribozyme variant]	7.16	1.79	1.81	1.63	1.37	1.21
AAUCACCUAGGUCAUCUGGUG [Fam2.2 aminoacylation ribozyme variant]	11.2	1.96	2.08	1.67	2.27	2.52
AAUCACCUAGGUCGUCGGGUG [Fam2.2 aminoacylation ribozyme variant]	7.97	2.12	2.21	2.19	3.25	1.34
AAUCACCUGGGUCAUCGGGUG [Fam2.2 aminoacylation ribozyme variant]	31.9	4.12	4.32	6.36	4.47	7.63
AAUCACUUAGGUCAUCGGGUG [Fam2.2 aminoacylation ribozyme variant]	43	5.09	7.21	4.61	7.59	8.45
AAUGCCCUGGUCAUCGAGUGA [Fam2.1 aminoacylation ribozyme variant]	33.9	4.61	9.57	5.85	9.96	11.8
AAUUACCUAGGUCAUCGGGUG [Fam2.2 aminoacylation ribozyme variant]	38	4.3	6.04	4.24	6.53	7.49
AAUUAUGCUAAUAGUCGCAAG [Fam3.1 aminoacylation ribozyme variant]	3.25	2.21	1.46	1.65	1.81	2.57
AAUUUUGCUAAUAGUCGCAGG [Fam3.1 aminoacylation ribozyme variant]	2.65	1.89	1.76	1.83	1.98	2.05
AAUUUUGCUAAUAGUCGGAAG [Fam3.1 aminoacylation ribozyme variant]	3.1	1.23	1.13	1.03	1.22	1.2
ACACACCUAGGUCAUCGGGUG [Fam2.2 aminoacylation ribozyme variant]	19	2.98	3.51	3.19	3.61	4.91
ACACACGUCAAGCAAUCGGUC [Fam1B.1 aminoacylation ribozyme variant]	3.48	1.88	1.96	2.04	2.14	2.55

Sequence	self-aminoacylation (biotinyl-Phe-oxazolone)	self-aminoacylation (biotinyl-Ile-oxazolone)	self-aminoacylation (biotinyl-Met-oxazolone)	self-aminoacylation (biotinyl-Val-oxazolone)	self-aminoacylation (biotinyl-Leu-oxazolone)	self-aminoacylation (biotinyl-Trp-oxazolone)
ACACACUGCAAGCAAUCGGUC [Fam1B.1 aminoacylation ribozyme variant]	1.36	1.43	1.23	1.33	1.48	1.73
ACACACUUAAAGCAAUCGGUC [Fam1B.1 aminoacylation ribozyme variant]	1.23	1.08	0.917	1.11	0.923	0.971
ACACACUUCAAACAAUCGGUC [Fam1B.1 aminoacylation ribozyme variant]	65.1	1.73	1.38	1.79	2.39	40.6
ACACACUUCAAGAAAUCGGUC [Fam1B.1 aminoacylation ribozyme variant]	5.64	1.24	1.41	1.27	1.32	4.86
ACACACUUCAAGCAAUCGCUC [Fam1B.1 aminoacylation ribozyme variant]	2.24	1.84	1.63	1.92	1.75	2.57
ACAUUUGCUAAUAGUCGCAAG [Fam3.1 aminoacylation ribozyme variant]	2.27	2.46	1.79	1.92	2.43	1.32
ACCCACUUCAAGCAAUCGGUC [Fam1B.1 aminoacylation ribozyme variant]	23.3	1.11	1.15	1.29	1.37	15.2
ACGCACCUAGGUCAUCGGGUG [Fam2.2 aminoacylation ribozyme variant]	29	3.42	4.23	3.55	3.1	4.93
ACGUUUGCUAAUACUCGCAAG [Fam3.1 aminoacylation ribozyme variant]	1.88	1.12	0.968	0.9	0.909	0.897
ACUAACCUGGUCAUCGAGUGA [Fam2.1 aminoacylation ribozyme variant]	2.68	3.19	4.84	2.91	3.83	5.42
ACUACCCUGAUCAUCGAGUGA [Fam2.1 aminoacylation ribozyme variant]	6.61	3.87	5.52	3.38	5.88	7.58
ACUACCCUGGUCAUCGAGUGA [Fam2.1 aminoacylation ribozyme variant]	266	16.2	44.3	17.4	43.4	45.2
ACUACCCUGGUCAUGGAGUGA [Fam2.1 aminoacylation ribozyme variant]	11.6	2.86	3.35	2.59	3.32	3.33
ACUACCCUUGUCAUCGAGUGA [Fam2.1 aminoacylation ribozyme variant]	28.7	3.28	6.22	3.24	6.34	6.54
ACUACCGUGGUCAUCGAGUGA [Fam2.1 aminoacylation ribozyme variant]	18	3.41	5.28	3.29	5.21	6.91
ACUACGCUGGUCAUCGAGUGA [Fam2.1 aminoacylation ribozyme variant]	35.1	4.74	5.77	4.04	5.5	7.58
ACUCACCUAAGUCAUCGGGUG [Fam2.2 aminoacylation ribozyme variant]	67.2	5.02	9.14	5.83	10.5	10.6
ACUCACCUACGUCAUCGGGUG [Fam2.2 aminoacylation ribozyme variant]	57.3	3.98	6.25	4.69	7.79	6.64
ACUCACCUAGGGCAUCGGGUG [Fam2.2 aminoacylation ribozyme variant]	18.2	4.42	3.92	3.83	5.19	6.35
ACUCACCUAGGUAAUCGGGUG [Fam2.2 aminoacylation ribozyme variant]	23.9	3.22	4.2	2.85	3.66	4.3
ACUCACCUAGGUCAUCGGAUG [Fam2.2 aminoacylation ribozyme variant]	0.718	1.13	0.912	1.02	0.812	1.48
ACUCACCUAGGUCAUCUGGUG [Fam2.2 aminoacylation ribozyme variant]	6.43	1.68	1.87	1.57	2.03	2.35
ACUCACCUAGGUCAUUGGGUG [Fam2.2 aminoacylation ribozyme variant]	14.3	2.31	2.35	2.56	2.91	3.78
ACUCACCUAGGUUAUCGGGUG [Fam2.2 aminoacylation ribozyme variant]	46	4.89	3.92	5.05	5.42	7.29
ACUCAUCUAGGUCAUCGGGUG [Fam2.2 aminoacylation ribozyme variant]	42.4	5.55	6.28	5.04	6.97	7.26

— the supplement of paper PMC9233669
